PMC3297582, “Spo0A∼P Imposes a Temporal Gate for the Bimodal Expression of Competence in Bacillus subtilis” (PLoS Genetics, 2012)

Biological target: the molecule itself
Experiment: SEC; Superdex 200 column; Spo0A after phosphorylation with phosphoramidate; buffer not stated

B1: Spo0A∼P (phosphorylated form of the response-regulator protein Spo0A) (natural protein, Bacillus subtilis, UniProt P06534 1-267, looked up)
chain: MEKIKVCVADDNRELVSLLSEYIEGQEDMEVIGVAYNGQECLSLFKEKDPDVLVLDIIMPHLDGLAVLERLRESDLKKQPNVIMLTAFGQEDVTKKAVDLGASYFILKPFDMENLVGHIRQVSGNASSVTHRAPSSQSSIIRSSQPEPKKKNLDASITSIIHEIGVPAHIKGYLYLREAISMVYNDIELLGSITKVLYPDIAKKFNTTASRVERAIRHAIEVAWSRGNIDSISSLFGYTVSMTKAKPTNSEFIAMVADKLRLEHKAS
modifications: phosphorylated with phosphoramidate (residue not given; fraction phosphorylated uncertain)
notes: Spo0A, response regulator of Bacillus subtilis, full length, phosphorylated in vitro; also called OA∼P; source: purified following a published protocol [41] as modified [42]; phosphorylated with non-radioactive phosphoramidate
stoichiometry N: 2
